Data reported in the supplement of paper PMC9732359.
± gives the uncertainty stated by the source.

Assay: protein stability index of a GFP-peptide fusion (yeast GPS) (PSI 1-4); higher = more stable; sorted into four equal gates, so the index is relative within each strain
In short: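 Mid-log yeast cultures in leucine-free medium, carrying a pooled plasmid library, were sorted into four equal gates by their GFP/Cherry fluorescence ratio. Each plasmid expressed Cherry along with GFP fused upstream of a tiled 17-residue yeast protein peptide. Plasmids recovered from each gate were PCR-amplified and Illumina-sequenced, with reads assigned to strains by barcodes. The protein stability index was obtained by summing each gate's read frequency weighted by its gate number.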

| Sequence | protein stability index (doa10∆) | protein stability index (pdr5∆) | protein stability index (san1∆) | protein stability index (ubr1∆) |
| --- | --- | --- | --- | --- |
| GPLAEEPIYGVQYKLLS [SNU114] | 2.9 ± 0.11 | 2.6 ± 0.12 | 2.74 ± 0.08 | 3.17 ± 0.13 |
| GVGILYKGMASNDERIV [BRR2] | 2.44 ± 0.098 | 2.23 ± 0.081 | 1.79 ± 0.11 | 3.15 ± 0.09 |
| QVNGNIRKVSNDRESVL [SMC3] | 3.12 ± 0.15 | 1.88 ± 0.079 | 1.92 ± 0.083 | 2.18 ± 0.056 |
| RIIREMFAYAKEHEPCI [RPT4] | 2.43 ± 0.1 | 2.65 ± 0.12 | 2.83 ± 0.11 | 2.58 ± 0.093 |
| YTQYTNDYLEKHSVTEY [CDC53] | 2.55 ± 0.1 | 2.45 ± 0.075 | 2.81 ± 0.071 | 3.13 ± 0.092 |
| DPDTKKVKESPANDQAS [YIL149C/MLP2] | 3.04 ± 0.084 | 3.21 ± 0.078 | 3.06 ± 0.049 | 3.12 ± 0.093 |
| GLFEKSTVSANHSNNDI [BRN1] | 3.12 ± 0.14 | 2.95 ± 0.11 | 3.19 ± 0.08 | 3.11 ± 0.12 |
| TRGRSATIRETYEIICD [RRP43] | 2.59 ± 0.049 | 2.68 ± 0.05 | 2.57 ± 0.058 | 2.62 ± 0.035 |
| LRLTRINSGTFVKVTKA [RPL7A] | 1.89 ± 0.1 |  | 1.43 ± 0.28 |  |
| WSCIVVENWIIDDKGVL [ITC1] | 2.18 ± 0.058 | 2.72 ± 0.08 | 2.71 ± 0.12 | 2.95 ± 0.063 |
| SKKVLECLPAEGHDWKA [DIS3] | 1.65 ± 0.13 | 1.69 ± 0.13 | 1.47 ± 0.1 | 1.55 ± 0.07 |
| ELAVENPLAKTMADAVR [SEC65] | 3 ± 0.048 | 2.94 ± 0.039 | 2.5 ± 0.047 | 1.77 ± 0.026 |
| ILEHTLFKGTGFNSWEG [PRP8] | 2.42 ± 0.12 | 2.41 ± 0.12 | 3.38 ± 0.13 | 1.64 ± 0.039 |
| IIHVLTTMFENTGWSCS [RGR1] | 2.16 ± 0.054 | 2.33 ± 0.077 | 2.7 ± 0.077 | 2.73 ± 0.044 |
| MKLTDLLSLINSTHLLP [SNF12] | 2.56 ± 0.052 | 2.57 ± 0.04 | 2.94 ± 0.05 | 2.58 ± 0.036 |
| MNLDFDIEEGPITSKSW [MCD1] | 2.85 ± 0.15 | 3.16 ± 0.093 | 3.17 ± 0.072 | 3.49 ± 0.18 |
| QRKNGVTNSPLFQTIEK [ECM29] | 3.29 ± 0.16 | 3.1 ± 0.14 | 2.19 ± 0.28 | 3.11 ± 0.086 |
| YWYWWKNGNEYNEFLYS [QCR8] | 2.62 ± 0.066 | 2.21 ± 0.049 | 2.49 ± 0.06 | 2.56 ± 0.047 |
| SLDSCTAAFTAMICEAK [YJR042W/NUP85] | 2.79 ± 0.13 | 2.51 ± 0.11 | 2.99 ± 0.081 | 2.81 ± 0.096 |
| TSINHKIYRVGKGDDEA [RPL3] | 3.44 ± 0.071 | 3.61 ± 0.1 | 3.67 ± 0.044 | 3.28 ± 0.11 |
| NFADKYDEVKKHWGGGI [RPL8A] | 2.66 ± 0.21 | 3.2 ± 0.12 | 2.97 ± 0.099 | 3.05 ± 0.14 |
| GNESVKPQFENHVKQFY [MED11] | 2.83 ± 0.19 | 2.57 ± 0.22 |  |  |

| Sequence | protein stability index (doa10∆) | protein stability index (pdr5∆) | protein stability index (san1∆) | protein stability index (ubr1∆) |
| --- | --- | --- | --- | --- |
| NSSMRYGYWFDCRMGNF [AAR2] |  |  | 1.83 ± 0.12 |  |
| SQTPKVEKTEKPKKPKG [RPS30A] | 3.1 ± 0.07 | 3.12 ± 0.07 | 2.93 ± 0.051 | 2.94 ± 0.047 |
| NTIGSVHGKAPMLMANN [SSN3] | 1.54 ± 0.18 | 1.54 ± 0.11 | 1.48 ± 0.19 | 1.89 ± 0.19 |
| LKHLEEMGKLRERDITS [RRI2] | 2.76 ± 0.079 | 2.58 ± 0.11 | 2.55 ± 0.15 | 3.16 ± 0.068 |
| ILDCVVTNSMRQTLAPY [YJR042W/NUP85] | 2.29 ± 0.064 | 2.84 ± 0.052 | 2.53 ± 0.05 | 2.6 ± 0.048 |
| LFQENDDDDDDDDEVDY [DSN1] | 2.94 ± 0.14 | 2.71 ± 0.1 | 2.97 ± 0.091 | 3.06 ± 0.15 |
| SDAVMAEHSQNKIDQSL [YJL041W/NSP1] | 3.08 ± 0.064 | 3.18 ± 0.044 | 3.08 ± 0.052 | 3.07 ± 0.056 |
| MNLKKELQGYIELSVPD [SRB5] | 2.6 ± 0.21 | 3.26 ± 0.14 | 3.15 ± 0.075 | 2.83 ± 0.1 |
| LQYGWKVERHIMDNDPV [RPO21] | 1.19 ± 0.069 | 1.21 ± 0.12 | 1.37 ± 0.19 | 1.24 ± 0.098 |
| DKFKLNENDLKTYNCLH [SMC1] | 2.7 ± 0.14 | 2.5 ± 0.12 |  | 2.85 ± 0.094 |
| LLHHVSELDSNDFFIIY [YJL039C/NUP192] | 1.7 ± 0.088 | 1.74 ± 0.088 | 1.61 ± 0.14 | 2.02 ± 0.078 |
| DSLIFKDSSLNYSSESY [YJL039C/NUP192] | 3.43 ± 0.089 | 3.25 ± 0.1 | 2.71 ± 0.21 | 3.17 ± 0.14 |
| EIGPSPTLAGMAQRTLK [FAS2] | 2.392 ± 0.02 | 2.559 ± 0.021 | 2.546 ± 0.021 | 2.45 ± 0.015 |
| DGENDKKEATKPAFSFG [YLR335W/NUP2] | 2.59 ± 0.048 | 2.21 ± 0.043 | 2.79 ± 0.041 | 2.9 ± 0.033 |
| ALAGGKKSKKKWSKKSM [RPS25A] | 3.45 ± 0.12 | 3.42 ± 0.17 | 3.23 ± 0.16 | 3.63 ± 0.09 |
| MRQQSKELQQLQKQILT [SMC1] | 3.32 ± 0.13 | 3.05 ± 0.074 | 3.29 ± 0.039 | 3.17 ± 0.049 |
| LHTARKILVLTGAGVST [SIR2] | 2.06 ± 0.052 | 1.56 ± 0.054 | 2.33 ± 0.082 | 2.29 ± 0.059 |
| GPKSGSTMGTPTVHNST [PGD1] | 3.05 ± 0.078 | 3.04 ± 0.055 | 3.01 ± 0.061 | 3.12 ± 0.06 |
| FQIVIEPLAIALSMGKS [ARP7] | 1.42 ± 0.054 | 1.71 ± 0.059 | 1.52 ± 0.092 | 1.5 ± 0.07 |
| LEKKFQDRHVIFLAERR [RPS7A] | 2.53 ± 0.23 | 2.9 ± 0.12 | 2.86 ± 0.27 | 2.71 ± 0.11 |
| KLDSKKTVPFQVNQLQR [SSN3] | 3.15 ± 0.063 | 3.28 ± 0.042 | 3.19 ± 0.046 | 3.12 ± 0.049 |
